Experimental data published in US20180016327A1 (Chugai, published 2018).
Residue numbers refer to the chain shown, from its start.

B1: CFP0015 15L 96W (antibody, V domains shown)
VH: QVQLLESGGGLVQPGGSLRLSCAASGFTFSSYAMSWVRQAPGKGLEWVSAISGSGGSTYYADSVKGRFTISRDNSKNTLYLQMNSLRAEDTAVYYCARGDQIWYDQWYYFDMWGQGTLVTVSS
VL: DIQMTQSPSSLSASVGDRVTITCRASQSIEDDLAWYQQKPGKAPKLLIYEASNLQSGVPSRFSGSGSGTDFTLTISSLQPEDFATYYCQQYDSSPWTFGQGTKVEIK
B2: CFP0021 (antibody, V domains shown)
VH: QVQLVESGGGLVQPGGSLRLSCAASGFTFSDHYMDWVRQAPGKGLEWVGRTRNKANSYTTEYAASVKGRFTISRDDSKNSLYLQMNSLKTEDTAVYYCARTGMMYWGIFDVWGQGTLVTVSS
VL: B1 VL with E50H, N53T, Y91H, S94Y, W96L
notes: IgG format
B3: CFP0017 17L 32N (antibody, V domains shown)
VH: QVQLVQSGAEVKKPGSSVKVSCKASGGTFSSYAISWVRQAPGQGLEWMGGIIPIFGTANYAQKFQGRVTITADESTSTAYMELSSLRSEDTAVYYCARGGWWGGALDYWGQGTLVTVSS
VL: B1 VL with D32N, E50H, N53S, Y91S, S94Y, W96L
B4: CFP0011 (antibody, V domains shown)
VH: QVQLVQSGAEVKKPGSSVKVSCKASGGTFSSYAISWVRQAPGQGLEWMGGIIPIFGTANYAQKFQGRVTITADESTSTAYMELSSLRSEDTAVYYCARDMSEFLGWSNYYSYPMDVWGQGTTVTVSS
VL: B1 VL with E50H, N53S, Y91S, S93N, W96Y
notes: IgG format
B5: CFP0011 11L 31N (antibody, V domains shown)
VH: B4 VH
VL: B1 VL with D31N, E50H, N53S, Y91S, S93N, W96Y
B6: CFP0011 11L 96F (antibody, V domains shown)
VH: B4 VH
VL: B1 VL with E50H, N53S, Y91S, S93N, W96F
B7: CFP0011 11L 53T (antibody, V domains shown)
VH: B4 VH
VL: B1 VL with E50H, N53T, Y91S, S93N, W96Y
B8: CFP0011 11L 96W (antibody, V domains shown)
VH: B4 VH
VL: B1 VL with E50H, N53S, Y91S, S93N
B9: CFP0011 11L 30S (antibody, V domains shown)
VH: B4 VH
VL: B1 VL with E30S, E50H, N53S, Y91S, S93N, W96Y
B10: CFP0021 21L 31A (antibody, V domains shown)
VH: B2 VH
VL: B1 VL with D31A, E50H, N53T, Y91H, S94Y, W96L
B11: CFP0015 15L 96Y (antibody, V domains shown)
VH: B1 VH
VL: B1 VL with W96Y
B12: CFP0011 11L 53N (antibody, V domains shown)
VH: B4 VH
VL: B1 VL with E50H, Y91S, S93N, W96Y
B13: CFP0011 11L 32Q (antibody, V domains shown)
VH: B4 VH
VL: B1 VL with D32Q, E50H, N53S, Y91S, S93N, W96Y
B14: CFP0011 11L 91H (antibody, V domains shown)
VH: B4 VH
VL: B1 VL with E50H, N53S, Y91H, S93N, W96Y
B15: CFP0011 11L 31A (antibody, V domains shown)
VH: B4 VH
VL: B1 VL with D31A, E50H, N53S, Y91S, S93N, W96Y
B16: CFP0021 21L 31H (antibody, V domains shown)
VH: B2 VH
VL: B1 VL with D31H, E50H, N53T, Y91H, S94Y, W96L
B17: CFP0011 11L 94T (antibody, V domains shown)
VH: B4 VH
VL: B1 VL with E50H, N53S, Y91S, S93N, S94T, W96Y
B18: CFP0011 11L 96H (antibody, V domains shown)
VH: B4 VH
VL: B1 VL with E50H, N53S, Y91S, S93N, W96H
B19: CFP0011 11L 93S (antibody, V domains shown)
VH: B4 VH
VL: B1 VL with E50H, N53S, Y91S, W96Y
B20: CFP0011 11L 96P (antibody, V domains shown)
VH: B4 VH
VL: B1 VL with E50H, N53S, Y91S, S93N, W96P
B21: CFP0021 21L 30A (antibody, V domains shown)
VH: B2 VH
VL: B1 VL with E30A, E50H, N53T, Y91H, S94Y, W96L
B22: CFP0011 11L 91R (antibody, V domains shown)
VH: B4 VH
VL: B1 VL with E50H, N53S, Y91R, S93N, W96Y
B23: CFP0011 11L 91Y (antibody, V domains shown)
VH: B4 VH
VL: B1 VL with E50H, N53S, S93N, W96Y
B24: CFP0011 11L 50D (antibody, V domains shown)
VH: B4 VH
VL: B1 VL with E50D, N53S, Y91S, S93N, W96Y
B25: CFP0011 11L 93R (antibody, V domains shown)
VH: B4 VH
VL: B1 VL with E50H, N53S, Y91S, S93R, W96Y
B26: CFP0021 21L 31N (antibody, V domains shown)
VH: B2 VH
VL: B1 VL with D31N, E50H, N53T, Y91H, S94Y, W96L
B27: CFP0021 21L 30D (antibody, V domains shown)
VH: B2 VH
VL: B1 VL with E30D, E50H, N53T, Y91H, S94Y, W96L
B28: CFP0011 11L 50A (antibody, V domains shown)
VH: B4 VH
VL: B1 VL with E50A, N53S, Y91S, S93N, W96Y
B29: CFP0011 11L 92S (antibody, V domains shown)
VH: B4 VH
VL: B1 VL with E50H, N53S, Y91S, D92S, S93N, W96Y
B30: CFP0021 21L 30S (antibody, V domains shown)
VH: B2 VH
VL: B1 VL with E30S, E50H, N53T, Y91H, S94Y, W96L
B31: CFP0011 11L 30H (antibody, V domains shown)
VH: B4 VH
VL: B1 VL with E30H, E50H, N53S, Y91S, S93N, W96Y
B32: CFP0011 11L 34N (antibody, V domains shown)
VH: B4 VH
VL: B1 VL with A34N, E50H, N53S, Y91S, S93N, W96Y
B33: CFP0011 11L 96I (antibody, V domains shown)
VH: B4 VH
VL: B1 VL with E50H, N53S, Y91S, S93N, W96I
B34: CFP0011 11L 93G (antibody, V domains shown)
VH: B4 VH
VL: B1 VL with E50H, N53S, Y91S, S93G, W96Y
B35: CFP0011 11L 30D (antibody, V domains shown)
VH: B4 VH
VL: B1 VL with E30D, E50H, N53S, Y91S, S93N, W96Y
B36: CFP0011 11L 30A (antibody, V domains shown)
VH: B4 VH
VL: B1 VL with E30A, E50H, N53S, Y91S, S93N, W96Y
B37: CFP0011 11L 32N (antibody, V domains shown)
VH: B4 VH
VL: B1 VL with D32N, E50H, N53S, Y91S, S93N, W96Y
B38: CFP0011 11L 50E (antibody, V domains shown)
VH: B4 VH
VL: B1 VL with N53S, Y91S, S93N, W96Y
B39: CFP0011 11L 31H (antibody, V domains shown)
VH: B4 VH
VL: B1 VL with D31H, E50H, N53S, Y91S, S93N, W96Y
B40: CFP0011 11L 96L (antibody, V domains shown)
VH: B4 VH
VL: B1 VL with E50H, N53S, Y91S, S93N, W96L
B41: CFP0011 11L 94Y (antibody, V domains shown)
VH: B4 VH
VL: B1 VL with E50H, N53S, Y91S, S93N, S94Y, W96Y
B42: CFP0011 11L 53H (antibody, V domains shown)
VH: B4 VH
VL: B1 VL with E50H, N53H, Y91S, S93N, W96Y
B43: CFP0011 11L 93D (antibody, V domains shown)
VH: B4 VH
VL: B1 VL with E50H, N53S, Y91S, S93D, W96Y
B44: CFP0021 21L 30H (antibody, V domains shown)
VH: B2 VH
VL: B1 VL with E30H, E50H, N53T, Y91H, S94Y, W96L

Molecular target: T1, human C5 (human, UniProt P01031 19-673; P01031 678-1676, Beta and alpha chains are disulfide-linked and the protein is glycosylated.)
T1 construct: Either in-house recombinant C5 or plasma derived C5 (CALBIOCHEM) was used; also called recombinant human C5; plasma derived human C5
Experiment: Biacore, captured antibody, pH 7.4, 37 C;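 further: biacore binding response of anti-C5 antibody light chain variants captured on chip with human C5 injected, ACES running buffer containing 1.2 mM CaCl₂, parent light chain antibody set to 100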

First: B1
Second: B2
The “% binding (parent = 100)” value of the first is lower: 3.6% for the first, 100% for the second.

Going from B3 to B4, the “% binding (parent = 100)” value rises from 27% to 100%.

First: B5
Second: B6
The “% binding (parent = 100)” value of the first is higher: 125% for the first, 82.8% for the second.

Going from B7 to B8, the “% binding (parent = 100)” value falls from 98.9% to 5.4%.

Compared with B9, B10 is lower in “% binding (parent = 100)” value: 44.5% for the first, 31.2% for the second.

Going from B11 to B12, the “% binding (parent = 100)” value rises from 7.5% to 105%.

Compared with B13, B14 is higher in “% binding (parent = 100)” value: 18.4% for the first, 320% for the second.

First: B15
Second: B16
The “% binding (parent = 100)” value of the first is higher: 112% for the first, 41.3% for the second.

Going from B17 to B18, the “% binding (parent = 100)” value falls from 207% to 5.1%.

First: B19
Second: B20
The “% binding (parent = 100)” value of the first is higher: 4% for the first, -1.6% for the second.

Compared with B21, B22 is lower in “% binding (parent = 100)” value: 76.9% for the first, -2.6% for the second.

Going from B23 to B24, the “% binding (parent = 100)” value rises from 56% to 58.2%.

Compared with B25, B26 is higher in “% binding (parent = 100)” value: 11.7% for the first, 52.3% for the second.

First: B27
Second: B28
The “% binding (parent = 100)” value of the first is lower: 87.5% for the first, 95.2% for the second.

Going from B29 to B30, the “% binding (parent = 100)” value rises from 1.1% to 76.7%.

First: B31
Second: B32
The “% binding (parent = 100)” value of the first is lower: 13.6% for the first, 29.2% for the second.

Going from B33 to B34, the “% binding (parent = 100)” value rises from 0.8% to 3.6%.

Compared with B35, B36 is higher in “% binding (parent = 100)” value: 71.4% for the first, 100% for the second.

First: B37
Second: B38
The “% binding (parent = 100)” value of the first is lower: 3.6% for the first, 75.6% for the second.

Going from B39 to B40, the “% binding (parent = 100)” value falls from 100% to 3.2%.

Compared with B41, B42 is higher in “% binding (parent = 100)” value: -0.7% for the first, 115% for the second.

First: B43
Second: B44
The “% binding (parent = 100)” value of the first is lower: 5.4% for the first, 59.7% for the second.
